Test results published in US20210138049A1.
Where “and” joins values, the source holds several entries; their conditions need not be identical. Identical values can stand only once.

Experiments:
[1] = biological target: α-Synuclein 91-140 peptide (human); assay: peptide ELISA, serum, 0 w
β-Syn (103-134) peptide = assay: peptide ELISA, serum, 0 w

ELISA Log10 Titer [1]: 0.1 Log10 titer and 0.2 Log10 titer and 0.3 Log10 titer
ELISA Log10 Titer (β-Syn (103-134) peptide): 0.1 Log10 titer
Substance: preimmune guinea pig serum / antibodies purified from preimmune serum of naïve guinea pigs (antibody)
